Test results taken from article doi:10.1101/2022.07.14.500063.

Columns and labels:
[1] = target: Delta RBD+E406D (SARS-CoV-2) (UniProt P0DTC2)
[2] = target: Delta RBD+E406Q (SARS-CoV-2) (UniProt P0DTC2)
[3] = target: Delta RBD+L455S (SARS-CoV-2) (UniProt P0DTC2)
[4] = target: Delta+Y453F Spike on pseudotyped lentivirus (SARS-CoV-2) (UniProt P0DTC2)
[5] = target: Delta RBD+L455S (SARS-CoV-2) (UniProt P0DTC2); remark: listed apart in the source
[6] = target: Delta+L455F Spike on pseudotyped lentivirus (SARS-CoV-2) (UniProt P0DTC2)

casirivimab (REGN10933) (antibody)
fold reduction in pseudoviral neutralisation titre [1]: 2 fold | fold reduction in pseudoviral neutralisation titre [2]: 12 fold | fold reduction in pseudoviral neutralisation titre [3]: 65 fold | fold reduction in pseudoviral neutralization titre against wild-type Delta [4]: 16 fold | fold reduction in pseudoviral neutralization titre against wild-type Delta [5]: 155 fold | fold reduction in pseudoviral neutralization titre against wild-type Delta [6]: 17 fold
